# In PMC9573943, “Contribution of the 12–17 hydrophobic region of islet amyloid polypeptide in self-assembly and cytotoxicity” (Frontiers in Molecular Biosciences, 2022):
# “Also recorded” adds a separate entry of the source. Bridge positions count the residues as written; N and C are the ends. Ends that are not written are not given here.
# Legend:
# [1] = cited from earlier work
# Excerpt: Countless studies have highlighted the key contributions of the 20–29 domain for IAPP self-assembly, often referred to as the amyloidogenic core ([Glenner et al., 1988]). The fact that the sequence from rodent IAPP (rIAPP) includes three β-breaker prolines within the 20-29 region, and is non-amyloidogenic and poorly toxic, further highlights the critical role of this segment ([Moriarty and Raleigh, 1999]; [Tomasello et al., 2014]).
# [2] = Kinetics of amyloid formation monitored by ThT fluorescence; format: physicochemical; conditions: 40 μM ThT, 20 mM Tris-HCl pH 7.4, 25°C, no agitation
# Protocol: Aggregation mixtures were prepared by dissolving the lyophilized peptide at a concentration of 50 μM in 20 mM Tris-HCl, pH 7.4. Assays were performed at 25°C without stirring in sealed black-wall clear-bottom 96-well nonbinding surface plates with 100 μL/well. Final peptide concentrations were 12.5 and 25 μM, and thioflavin T (ThT) concentration was fixed at 40 μM. Fluorescence was measured every 10 min (excitation: 440 nm, emission: 485 nm) and data from triplicate wells were averaged, corrected by subtracting the blank control, and plotted as ThT fluorescence vs. time. Data were normalized with maximum ThT fluorescence intensity obtained for unmodified IAPP. Data were fitted to a sigmoidal Boltzmann model: Y=Yo+(Ymax−Yo)/1+e^−(T−T50)/ K where T 50 is the time required to reach half of the maximum fluorescence intensity, k is the apparent first-order constant, and Y max and Y 0 are the maximum and initial ThT fluorescence values. Lag time corresponds to T50 - 2/k. Data of at least six assays performed with different peptide lots were averaged and expressed as the mean ± S.D. Statistical analysis was performed using Student’s t test, and statistically significant difference between IAPP and analogs was established at (*) p < 0.05; (**) p < 0.005; (***) p < 0.0005.
# [3] = tested on: INS-1E cells; assay: Cell viability by resazurin reduction; format: cell-based, Rat; conditions: freshly dissolved peptide up to 50 μM, 24 h, at least five assays
# Protocol: (§1) Rat INS-1E cells were cultured in treated black-wall clear-bottom 96-well plates at a density of 25,000 cell/well in RPMI-1640 medium supplemented with 10% FBS, 2 mM L-glutamine, 100 U/ml penicillin, 100 μg/ml streptomycin, 10 mM HEPES, 1 mM sodium pyruvate and 50 μM β-mercaptoethanol. After 48 h of incubation at 37°C in 5% CO2, cells were treated with 50 μL of peptide freshly dissolved in 20 mM Tris-HCl, pH 7.4. […] Cell viability (%) was calculated from the ratio of the fluorescence of the treated cells to the vehicle-treated cells. Data of at least five assays performed with different peptide lots were averaged and expressed as the mean ± S.D. Statistical analysis was performed using Student’s t test, and statistically significant difference was established at (*) p < 0.05; (**) p < 0.005; (***) p < 0.0005. For Live/Dead viability assay, cells were plated in 12-well plates at density of 250,000 cell/well for 48 h before treatment with 25 μM peptide.
# [4] = Lipid membrane leakage (calcein-loaded LUVs); conditions: 25 μM peptide, 500 μM phospholipids, LUVs DOPC:DOPG 9:1, 20 mM Tris-HCl, 150 mM NaCl, pH 7.4, read every 10 min over 24 h; IAPP value reached after 10 h; at least four assays
# Protocol: Large unilamellar vesicles (LUVs) were assembled from 1,2-Dioleoyl-sn-glycero-3-phosphocholine (DOPC) and 2-dioleoyl-sn-glycero-3-phospho-(1′-rac-glycerol) (DOPG) at a 9:1 M ratio (DOPC:DOPG). Lipids were solubilized in 100% chloroform, which was then evaporated. […] The lipid mixture was freeze-thawed five times before being extruded through a 100 nm membrane for 20 cycles. Nonencapsulated calcein was removed by gel filtration using a Sephadex G25 fine resin and 20 mM Tris-HCl, 150 mM NaCl, pH 7.4, as elution buffer. Final lipid concentration was determined by a colorimetric assay ([Babych et al., 2021]). Lyophilized peptides were solubilized in 20 mM Tris-HCl, 150 mM NaCl, pH 7.4, at 50 μM prior to dilution into calcein-LUVs, to reach 25 μM peptide and 500 μM phospholipids. Fluorescence was monitored in sealed black-wall, clear-bottom 96-well non-binding surface plates with 100 μL/well. […] 100% leakage (Fmax) was determined with 0.2% Triton X-100 and LUV leakage was reported using:
# Membrane leakage (%) = (F−F baseline)/(F max−F baseline)
# Data of at least four assays with different peptide lots were averaged and expressed as the mean ± S.D. Statistical analysis was performed using Student’s t test, and statistically significant difference was established at (*) p < 0.05; (**) p < 0.005; (***) p < 0.0005.
# [5] = tested on: INS-1E cells; assay: Live/Dead viability assay (calcein-AM / ethidium homodimer-1, fluorescence microscopy); format: cell-based, Rat; conditions: 25 μM freshly solubilized peptide, 24 h, calcein-AM (green, live) and ethidium homodimer-1 (red, dead)
# Protocol: as §1
# [6] = Peptide self-assembly under fully quiescent conditions (CD, ThT and ANS fluorescence, TEM, AFM); format: physicochemical; conditions: 50 μM peptide; for Assemblies observed by TEM after 48 h incubation / Overall effect of the substitution on amyloid formation, in words: 20 mM Tris-HCl pH 7.4, quiescent; for Assemblies observed by TEM after 48 h incubation: negative stain TEM; for Overall effect of the substitution on amyloid formation, in words: CD, ThT, ANS, TEM, compared with unmodified IAPP
# Protocol: (§2) Solutions were prepared by dissolving the peptide at a concentration of 50 μM in 20 mM Tris-HCl, pH 7.4, and were incubated at room temperature without agitation in 1.5 ml Eppendorf microtubes. For IAPP12-17, the lyophilized peptide was dissolved in 20 mM acetate pH 6.5 in the presence of 3% DMSO, or HFIP, at a final concentration of 500 μM and the peptide solution was incubated at 37 °C under constant rotational agitation.
# (§3) At the indicating time of incubation, peptide solutions were diluted to 25 μM in presence of 40 μM ThT, or 25 μM 8-anilino-1-naphthalenesulfonic acid (ANS). Fluorescence was measured in 10-mm pathlength microcells using a PTI QuantaMaster spectrofluorometer. For ThT, excitation was set at 440 nm, and the emission spectrum from 450 to 550 nm was recorded. For ANS, the excitation was set at 355 nm, and the emission scan was recorded from 385 to 585 nm.
# (§4) After incubation, peptide solutions were diluted in water to 25 μM and incorporated into a 2-mm path length quartz cell. For IAPP12-17, the solution was diluted to 150 μM. Far-UV CD spectra were recorded from 190 to 260 nm using a Jasco J-815 CD spectropolarimeter at 25°C. The wavelength step was set at 0.5 nm with an average time of 10 s per scan at each wavelength. Spectra were background-subtracted with buffer solution. Raw data were converted to mean residue ellipticity (MRE): MRE=Mean residue weight (g/mol)X CD signal (deg)/10 X pathlength (cm) X peptide concentration (g/mL)
# (§5) After incubation, peptide solutions were diluted to 10 μM, or 100 μΜ for IAPP12-17, before being applied on glow-discharged carbon films on 300-mesh copper grids. Samples were adsorbed and negatively stained with 1.5% uranyl formate for 45 s. Images were recorded using a FEI Tecnai G2 Spirit Twin microscope operating at 120 kV and equipped with a Gatan Ultrascan scan 4,000 4k × 4k CCD camera system.
# After incubation, peptide solutions were diluted in 1% acetic acid to a concentration of 7.5 μΜ. […] Images were recorded using Veeco/Bruker multimode AFM instrument using ScanAsyst-air mode with a silicon tip (2–12 nm tip radius, 0.4 N/m force) on a nitride lever. Images were taken at 0.977 Hz and 512 scan/min.
# [7] = TFE titration by far-UV CD spectroscopy (helical folding); format: physicochemical; conditions: ellipticity at 222 nm, Tris-HCl 20 mM, TFE titration (0 to 30% TFE)
# Protocol: as §4
# [8] = Solubility and self-assembly of the IAPP12-17 fragment (CD, ThT, ANS, TEM); format: physicochemical
# Protocol: as §2, §3, §4, §5
# [9] = 20 mM Tris-HCl pH 7.4, room temperature, no agitation
Substance,"Cytotoxicity compared with unmodified IAPP, in words [3]",Assemblies observed by TEM after 48 h incubation [6],"Overall effect of the substitution on amyloid formation, in words [6]","TFE-induced helical folding compared with unmodified IAPP, in words [7]",other results
"ANFLV [pentapeptide corresponding to the segment 13-17 of IAPP, from a recent study]",–,–,–,–,"Fibril formation of the 13-17 pentapeptide ([1]; several days of incubation, ref Rozniakowski et al., 2020): did not form fibrils"
"F15A: full-length IAPP with Phe15 replaced by alanine (KCNTATCATQRLANALVHSSNNFGAILSSTNVGSNTY; disulfide 2-7; ends not checked; UniProt P10997 34-70, looked up, variant F15A)",reduced IAPP toxicity,no fibrillar aggregates could be observed,"delayed the appearance of ThT and ANS-positive signals, and β-sheet-rich assemblies",–,"Increase of ThT fluorescence signal ([2]; 12.5 μM peptide): no increase of ThT fluorescence signal could be detected; Lag time of amyloid formation ([2]; 25 μM peptide, nonbinding surface 96-well plate, read every 10 min, lag time = T50 - 2/k, mean ± S.D. of at least six assays): 14.2 ± 2.2 h; Maximum membrane leakage (calcein fluorescence, % of that with Triton X-100) [4]: 55%; Cell death in Live/Dead assay, in words [5]: decreased toxicity compared to unmodified IAPP; Assemblies observed by AFM after 96 h incubation ([6]; 20 mM Tris-HCl pH 7.4, room temperature, no agitation, 96 h): only small aggregates; Assemblies observed by TEM after 168 h (7 days) incubation [6, 9]: amyloid fibrils could be observed"
"F15G: full-length IAPP with Gly at position Phe15 (KCNTATCATQRLANGLVHSSNNFGAILSSTNVGSNTY; disulfide 2-7; ends not checked; UniProt P10997 34-70, looked up, variant F15G)",significantly reduced IAPP cytotoxicity,no aggregates could be detected,delayed IAPP amyloid formation,destabilizes the propensity of IAPP to adopt an α-helix,"Assemblies observed by TEM after 168 h (7 days) incubation [6, 9]: some partially dispersed amyloid fibrils"
"L16G: full-length IAPP with Gly at position Leu16 (KCNTATCATQRLANFGVHSSNNFGAILSSTNVGSNTY; disulfide 2-7; ends not checked; UniProt P10997 34-70, looked up, variant L16G)",significantly reduced IAPP cytotoxicity,Oligomer-like structures,delayed IAPP amyloid formation,destabilizes the propensity of IAPP to adopt an α-helix,–
"LANFLV [IAPP12-17, short C-amidated peptide encompassing the 12–17 segment (LANFLV) of IAPP]",–,–,–,–,"ThT and ANS fluorescence of the aggregates ([8]; 500 μM peptide incubated at 37 °C, diluted to 25 μM with 40 μM ThT or 25 μM ANS): ThT and ANS negative; Assemblies observed by TEM after 7 days incubation ([8]; 500 μM peptide, 20 mM acetate pH 6.5, 3% HFIP or 3% DMSO, 37 °C, constant agitation, longer fibrils with HFIP): laterally aligned rod-like fibrils; Secondary structure over incubation time (far-UV CD) ([8]; 500 μM peptide, 20 mM acetate pH 6.5, 3% HFIP, 37 °C, constant rotary agitation): mainly a random coil secondary structure after its solubilization, which evolves into β-sheet after prolonged incubation times; Solubility, in words ([8]; lyophilized/monomerized peptide, needed HFIP or DMSO before dilution in 20 mM acetate buffer pH 6.5): poor solubility"
"N14G: full-length IAPP with Asn14 substituted by Gly (KCNTATCATQRLAGFLVHSSNNFGAILSSTNVGSNTY; disulfide 2-7; ends not checked; UniProt P10997 34-70, looked up, variant N14G)","significantly reduced IAPP cytotoxicity; also recorded: poorly toxic for pancreatic cells, even at 50 μM","short, less defined, and twisted",–,destabilizes the propensity of IAPP to adopt an α-helix,"Secondary conformation / conformational transition over incubation (far-UV CD), in words ([6]; 20 mM Tris-HCl pH 7.4, room temperature, fully quiescent, up to 7 days): delayed the random coil-to-β-sheet shift"
"rIAPP: rodent IAPP, includes three β-breaker prolines within the 20-29 region",–,–,–,–,"Amyloidogenicity of rodent IAPP ([1]; ref Moriarty and Raleigh, 1999, Tomasello et al., 2014): non-amyloidogenic"
